From patent publication US20220195070A1 (Chugai, published 2022)

Columns and labels:
[1] = target: T1, anti-DENV E protein antibody comprising a modified IgG heavy chain constant region (SEQ ID NO: 116); assay: SPR (Biacore T200), 25 C, pH 7.4; SKA antibody captured by anti-rabbit IgG, anti-DENV E protein antibody injected 0-400 nM
T1 construct: also called anti-DENY E protein antibody; Fc-Mutated Antibody
From the text: (§1) Anti-rabbit IgG was immobilized onto FC 3 and 4 of a CMS sensor chip using an amine coupling kit (GE Healthcare). For the immobilization of anti-rabbit IgG, HBS-EP+, pH7.4 (GE Healthcare) buffer was used as running buffer. After the immobilization, running buffer was changed to phosphate pH7.4 buffer. Each antibody was captured onto FC4 of the sensor chip by anti-rabbit IgG. The amount of Anti Fc-Mutation Antibody to be captured was adjusted so that the number of resonance units (RU) was 100.

[2] = target: T1, anti-DENV E protein antibody comprising …; assay: SPR (Biacore T200), 25 C, pH 7.4; SKA antibody captured by anti-rabbit IgG, anti-DENV E protein antibody injected 0-400 nM; *reliability might be low
From the text: as §1

T1 sequence (constant, as listed by the source limits assumed): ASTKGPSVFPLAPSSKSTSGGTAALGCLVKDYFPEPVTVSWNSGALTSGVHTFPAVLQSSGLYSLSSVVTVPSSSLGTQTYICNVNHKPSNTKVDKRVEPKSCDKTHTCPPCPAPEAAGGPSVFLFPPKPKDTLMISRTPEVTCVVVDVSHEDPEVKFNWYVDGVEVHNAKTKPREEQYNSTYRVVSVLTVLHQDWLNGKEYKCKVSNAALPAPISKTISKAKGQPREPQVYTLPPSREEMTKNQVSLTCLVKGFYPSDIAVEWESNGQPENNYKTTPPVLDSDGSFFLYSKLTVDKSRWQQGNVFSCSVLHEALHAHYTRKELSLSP

B1: SKA0001 (antibody, V domains shown)
VH: QSVEESGGRLVTPGTPLTLTCTVSGFSLSYYAMNWVRQAPGKGLEWIGIIGISGGTYYASWAKGRFTISKSSSTTVDLKMTSPTTEDTATYFCARGGSAWGDLWGQGTLVTVSS
VL: DIVMTQTPSSVSAAVGGTVTINCQASQSISRLLAWYQQKPGQPPKVLMHDASDLASGVPSRFKGSGSGTEYTLTISDLECADAATYYCQSYYWGSSGDIGYPFGGGTEVVVKG
notes: Recombinant rabbit monoclonal from B-cell cloning, expressed in FreeStyle 293-F cells; the first screen used B-cell culture supernatant; also called Anti-SG115 Antibody; rabbit Anti Fc-Mutation Antibody
- kon [1]: 44400 M⁻¹ s⁻¹
- Kd [2]: 2.78 pM
- koff [2]: 1.23e-07 s⁻¹

B2: SKA0027 (antibody, V domains shown)
VH: QEQLVESGGGLVQPEGSLTLTCTASGFSFSSSDYMCWVRQAPGKGLEWIGCIYTGSGSTYYASWAKGRFTISKTSSTTVTLQMTSLTAADTATFFCARRGDSYSNYSFKLWGPGTLVTVSS
VL: AFELTQTPASVEAAVGGTVTIKCQASQNIYSNLAWYQQKPGQPPKLLIYTASSLASGVSSRFKGSGSGTEFTLTISDLECDDAATYYCQCTYINNGYGNTFGGGTEVVVKG
notes: as for B1
- Kd [1]: 1 nM
- koff [1]: 0.000191 s⁻¹
- kon [1]: 190000 M⁻¹ s⁻¹

B3: SKA0028 (antibody, V domains shown)
VH: QSVEESGGRLVTPGTPLTLTCTASGFTISSYHMSWVRQAPGKGLEWIGIIHGSGNMWYASWAKGRFTISRTSTTVDLEITSPTTEDTATYFCARIRFWASSNYYYFYLWGQGTLVTVSS
VL: ALVMTQTPASVSEPVGGTVTINCQASQNIYSNLAWYQQKPGQRPRLLIYGASNLESGVPSRFRGSGSGTEFTLTISDLECADAATYYCQSAYWGNNNDGAFGGGTEVVVKG
notes: as for B1
- koff [1]: 7.27e-05 s⁻¹
- kon [1]: 116000 M⁻¹ s⁻¹
- Kd [2]: 626 pM

B4: SKA0117 (antibody, V domains shown)
VH: QSLEESGGDLVKPEGSLTLTCTASGFSFSSSHYMCWVRQAPGKGLEWIACIYAGSSDNTYYASWAKGRFTISKTSSTTVTLQMTSLTAADTATYFCARDTYGYVGYASAGGFFNLWGPGTLVTVSS
VL: ALVMTQTPASVSAAVGGTVTINCQASHNIYSVLAWYQQKPGQRPRLLIYGASNLESGVPSRFKGSGSGTEYTLTISDLECDDAATYYCQSAYYSSSTGDNAFGGGTEVVVKG
notes: as for B1
- kon [1]: 126000 M⁻¹ s⁻¹
- Kd [2]: 0.275 pM
- koff [2]: 3.46e-08 s⁻¹

B5: SKA0141 (antibody, V domains shown)
VH: QSLEESGGDLVKPGASLTLTCTASGFSFSSSYYMCWVRQAPGKGLEWIACIYAGSSGSTYYASWAKGRFTISKTSSTTVTLQMTSLTAADTATYFCARDGDENMLVGGYFNLWGPGTLVTVSS
VL: ALVMTQTPSSVSAAVGGTVTINCQASHNIYSNLAWYQQKPGQRPKLLIYGASNLESGVPSRFKGSGSGTEYTLTISDLECDDAATYYCQSAYYSSNAGYNAFGGGTEVVVKG
notes: as for B1
- Kd [1]: 5.04 nM
- koff [1]: 0.00135 s⁻¹
- kon [1]: 267000 M⁻¹ s⁻¹

B6: SKA0171 (antibody, V domains shown)
VH: QSLEESGGGLVQPEGSLTLSCTASGFSFSSSYYMCWVRQAPGKGLEWIACIYGGNSVITYYANWAKGRFTISETSSTTVTLQMTSLTAADTATYFCAREVHYDYLYTTYGYANLWGPGTLVTVSS
VL: AIKMTQTPASVSAVVGGTVTINCQASETIYSGLAWYQQKPGQPPKLLIYDTANLETGVSSRFKGSGSGTEYTLTISDLECDDAATYFCLYAYYSGGSADNAFGGGTEVVVKG
notes: as for B1
- Kd [1]: 1.45 nM
- koff [1]: 0.00149 s⁻¹
- kon [1]: 1.02e+06 M⁻¹ s⁻¹
